# Key:
# [1] = molecular target: T1, 人DLL4抗原 (human, UniProt Q9NR61 27-524, limits assumed); assay: ELISA, DLL4 antigen coated at 1 μg/mL, antibody titrated 0-1000 nM, HRP secondary, OD450-OD630
# T1 construct: also called Delta like 4
# [2] = molecular target: T1, 人DLL4抗原; assay: ELISA, DLL4 antigen coated at 1 μg/mL, conjugate titrated 0-1000 nM, HRP secondary, OD450-OD630
# T1 sequence (Q9NR61 27-524 limits assumed): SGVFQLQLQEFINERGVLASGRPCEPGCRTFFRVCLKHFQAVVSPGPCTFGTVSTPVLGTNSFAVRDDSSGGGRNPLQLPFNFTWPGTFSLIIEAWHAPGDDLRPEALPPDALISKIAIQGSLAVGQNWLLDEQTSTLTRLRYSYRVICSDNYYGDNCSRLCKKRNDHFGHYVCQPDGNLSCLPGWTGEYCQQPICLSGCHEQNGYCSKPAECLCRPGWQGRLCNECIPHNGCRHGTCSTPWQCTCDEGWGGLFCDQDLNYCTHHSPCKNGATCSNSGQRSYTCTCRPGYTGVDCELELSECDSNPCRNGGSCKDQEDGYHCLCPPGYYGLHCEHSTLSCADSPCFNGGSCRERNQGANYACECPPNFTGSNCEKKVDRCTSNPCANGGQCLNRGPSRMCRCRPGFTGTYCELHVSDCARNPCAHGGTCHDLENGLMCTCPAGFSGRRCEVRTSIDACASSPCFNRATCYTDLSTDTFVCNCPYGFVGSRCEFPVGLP
Binder,EC50 [1] [nM],EC50 [2] [nM]
"抗人DLL4人源化抗体H3L2 (antibody, IgG1 humanized antibody; also called 裸抗) heavy: not shown light: EIVITQSPDFQSVTPKEKVTITCSVSSSISSSYLHWYQQKPDQSPKPWIYGTSNLASGVPSRFSGSGSGTDYTLTINSLEAEDAATYYCQQWSSSPLTFGQGTKLEIKVDTVAAPSVFIFPPSDEQLKSGTASVVCLLNNFYPREAKVQWKVDNALQSGNSQESVTEQDSKDSTYSLSSTLTLSKADYEKHKVYACEVTHQGLSSPVTKSFNRGEC",49.2,–
"抗人DLL4人源化抗体THL4与美登素生物碱DM1的偶联物HLmD4 (THL4-mpeo-DM1) (antibody, human IgG1, kappa, DAR 3.96, DM1 coupled through the BMPEO linker (mpeo-DM1) to the engineered Cys at light chain position 207 (V207C); DM1 coupled through the BMPEO linker (mpeo-DM1) to the engineered Cys at heavy chain position 121 (K121C), Antibody-drug conjugate of the IgG1 antibody THL4 (H3L2 with light chain V207C and heavy chain K121C) with DM1; average DAR 3.96 by HPLC; also called 抗体药物偶联物HLmD4) heavy: not shown light: EIVITQSPDFQSVTPKEKVTITCSVSSSISSSYLHWYQQKPDQSPKPWIYGTSNLASGVPSRFSGSGSGTDYTLTINSLEAEDAATYYCQQWSSSPLTFGQGTKLEIKVDTVAAPSVFIFPPSDEQLKSGTASVVCLLNNFYPREAKVQWKVDNALQSGNSQESVTEQDSKDSTYSLSSTLTLSKADYEKHKVYACEVTHQGLSSPCTKSFNRGEC",–,42.6

# From patent CN111494645A (UNIV CHINA PHARMA, dated 2020)
